From the RNAGym collection of RNA variant scans (doi:10.7554/elife.80360)

B1: HDV Ribozyme (parent)
chain: GGCCGGCAUGGUCCCAGCCUCCUCGCUGGCGCCGGCUGGGCAACAUUCCGAGGGGACCGUCCCCUCGGUAAUGGCGAAUGGGACCCA

Variants of: B1
Test: self-cleavage, relative activity (ratio to wild type); higher = more cleavage; co-transcriptional

Variant | self-cleavage
C14A C32G | 0.0573
C14A C84U | 0.262
C14A C84A | 0.458
C14A C64U | 0.743
C13U G54C | 0.623
C13U G54U | 0.578
C13U G38C | 0.0554
C13U G81A | 0.189
C14G C86U | 1.07
C13U G50C | 0.636
C14A U69A | 0.997
C14G A43G | 0.0978
C13U G74A | 0.131
C13U G74U | 0.0852
C14A C49A | 0.782
C14A U72C | 0.378
C14A C18A | 0
C14G U23A | 0.68
C13U A56C | 0.677
C14A G82C | 0.172
C14A C66U | 1.03

Variant | self-cleavage
C13U G80A | 0.31
C14A U20C | 0.111
C14G A51G | 0.475
C14A G54A | 0.751
C14U C15U | 0.665
C14G C75A | 0.111
C14A G17C | 0.123
C13U C19U | 0.0475
C13U C19A | 0.138
C14G C44U | 0.208
C13U C49A | 0.727
C14G C48U | 0.831
C14G C48A | 0.723
C14G U65G | 0.665
C13U U27A | 1.29
C14U A77U | 0.573
C13U C62G | 0.554
C14G G50C | 0.302
C13U A71C | 0.639
C14U A87C | 1.12
C14U A87U | 1.08

Variant | self-cleavage
C14G U47A | 0
C14G A78U | 0.185
C14A G34A | 0.185
C14A G31C | 0.0678
C14G U79C | 0.173
C14G G28U | 0.107
C14G G74A | 0.199
C13U A77C | 0.293
C13U G29A | 0.104
C13U G29C | 0.0332
C14A C22G | 0.0573
C13U A70G | 0.475
C14G C61G | 0.782
C14A G74C | 0.185
C13U U23G | 0.287
C14G C26G | 0.692
C14G C26A | 0.639
C13U C57A | 0.831
C14A A78U | 0.0791
C14A A78G | 0.0519
C14G G80U | 0.261

Variant | self-cleavage
C14A A71C | 0.166
C14A C61G | 0.997
C14G A45U | 0.237
C14G G59A | 0.962
C14G U27G | 1.14
C14G U27C | 0.727
C14A G67C | 0.554
C13U G53C | 0.831
C14G G53U | 0.802
C13U U60A | 0.554
C13U A78G | 0.178
C14U A42G | 0.959
C13U G17C | 0.217
C14A A77U | 0.237
C13U U65A | 0.508
C14G A56G | 0.646
C14G A56U | 0.969
C14G C62G | 0.0831
C13U C22A | 0.124
C13U C22G | 0.0831
